Results taken from the domain aggregation screens of Martell et al. (2025).

Assay: soluble fraction after stress (log2 fold change); higher = more stays soluble; pooled small domains, quantitative proteomics
Conditions: stress: 75 degC
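Also: 20 min heating vs room temperature control held 20 min.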

| Sequence | soluble fraction (log2) |
| --- | --- |
| HMLSVRNRMSDVLKSLDDGEFHRFESLFNLEEGRLGVVVTFLAMLELAKEMLVEIVQNESLGPIYLKSR | 0.041 |
| HMLSVRQRMGELLERLADGQFHRFESLFTVEEGKLGVVVTFLGLLTLAKEQLLDIVQEGPTAPIYVKSLA | -0.569 |
| HMLSVTLTVLPQQAGERLDAFAAAESTLSRSAAAKLIEDGQITVNGARAAKNYRLRAGDVIEIDEPEPI | -0.0471 |
| HMLTAPMPGTIQQILVTKGQKVRSGQTLMILEAMKMEHKIKAPNSGEIISINYSLGNRVEMGANLIEI | -2.1 |
| HMLTDAAAVKRSVRNLVQYGFYEKPFHPEIGSGVRDLLFENMTPFVANNLSKQIEEIITNYEPRA | -0.314 |
| HMLTDMSKIRKVLKLYGKGNSKLFISTYLSLSRNTVKKYISLFEVSGKTIEEILAKSDSELELLFSG | -0.981 |
| HMLTEREQDTLNFIRQYIDEQGRSPLVSEIAKGLGIKSQGTTHRYIQALVDAGLLERHVGRTRGLHLT | -0.0653 |
| HMLTGADAEKATAAAQAEFPGGTVLRVETDADGTYEAHVRKADGTEVEVKMDKDFKVTSVEE | 0.142 |
| HMLTLAVPNSINMRLDKYLSENIDYLSRSKIQGLINDGKVTINGENEKSSYKLNGDESIVIYYEE | -0.377 |
| HMLTPQEIGSRLKLVRQGLQLKQQEVAEIIGTSQLKISKIEQGATVTTPDFLKLLAFYSQSVSLDILF | -0.546 |
| HMLTRQRKQLLEYLSKHTDEQMTARQIADALTAESISISAVYRNLSALEEEGILKRSIRENTREVYYQYIA | -1.57 |
| HMLTSIDQMLKLAMPDSDITVSKMNGLILLTGTVKAPEDAAEAERLVQAFSAPPPGQPPVTVVSRLRTA | -0.402 |
| HMLTTMSSQWKPSLDAIEILEKSGIAYSFIEDAIPEFVLYWRERGISHGAWNTKFVEHIRKQWAKFEAS | -1.73 |
| HMLTTVAAQRAALHQEEDITKLREIILKLVPFWGLDGGAYADKETSIQLERQYRESFDQAVSAARRSGQA | -0.335 |
| HMLTWNQLGLITKPVVFLDGTGYYARLFEAFEHMISTGFVKENYRAMMNRATSVEEAVRIASSPAPKVD | -0.0438 |
| HMLVGGPDTPSKVTVSFDLGSRQAVDELTERAGAAGGRIGDIDDYPFMYQRQFDDPDGYHYSPFWMKP | -0.177 |
| HMLVTQSITVPMAMSGIRLDAALAMLFPDHSRNRLKAWLDDGHILVDGAVWAGKQRLEGNEEITATLPEAK | -0.673 |
| HMLYDNQLPDWAGQMVKNHGLTISPKALVILVDHIGNDLSRIENEIEKLMLNLGTRKSITEDDVEN | -1.61 |
| HMLYETLKKGDQGTSVKTLQEKLKALGYLTGAADGKYGAGTETAVKSFQKAAGLTETGTADPETLSAVYAA | 0.619 |
| HMLYITEIQKKIMDAFLVVANESNSGTRITMNEIANKVRMTPQAIYRKHFKSVIEISDTIRD | -0.551 |
| HMMEERVIEFANVLRRNGVRVSLAENMDAFRALKSLGISDPLLFRHALRATLIKRGSDIQPFEELFDFFFL | -1.42 |
| HMNAAFMKAERLLAILNILLTGKRVSSTELAKKLEVSVRTVYRDVEALSEAGFPVYATMGRDGGFGLIEGF | -2.09 |
| HMNADAIIGRMGKVTEPITPDGYGRVEIDGDSWKATAVGGVAIAEGTRVSVVSLDSIIITVKTV | -1.44 |
| HMNADAIVGRTGVVTEAIAADGFGRVQIDGDSWKAKASGNNGIDVGAKVRVLRIDSIILTVEK | -1.07 |
| HMNAELSTVQAAEVLNVSRPFLIKLLEDGAIPHRKVGKHRRVRMEDVMSYKAAIDTEREAVLDQLAA | -0.13 |
| HMNAISIDEAKKIALAKVSGASDQHIRIEADHDDGRLVYEGEIHYGRVEYEFEIDGSTGAIIEWDADRK | -0.286 |

| Sequence | soluble fraction (log2) |
| --- | --- |
| HMNAKKSTLQLDLLKQLLEGNKISLKDFSLSNEISIRTAQRYIEDLLEIFEKNIVKEGDFYSFIS | -3.4 |
| HMNAKNPRALAIQYVFKMQMGNFLHAKTDNQQQEQERIMTLFNEENKNTILPRWGKELLSYINRN | -0.74 |
| HMNDENIIIEEIKYFIKSNQIKEQEKLPSERNLSELFTVSRFSLRKALRHLVDTGYLYVKDKSGYYYQGD | -2.55 |
| HMNDLIKMPYLVGQLYDDVASNQEYADFQFKITEGNDPDKQPGEIMKQDPAADIMVKKNAEVELLVNG | 0.374 |
| HMNDLKEDTITVQSVEYIDSDDGTMVYIKDTNHQVYKQAFKEDESLIRISAGDVLHVKYQPMDNEIHLL | -0.341 |
| HMNDMPELLSIKEASQWATEYLNKNVTTSNIAYLIQYGRIRKIGNNGSTQVLKDDLVKYYKDQK | -0.11 |
| HMNDMWADITINANGKATLVVHTHEIKYLGLTGHLGKMEINGTAKEPVKDSSGDVVDYYFTFTDLDASMF | 0.328 |
| HMNDNFTPDDLNRLARIKDLPQAKKYALELISNKSAKPMKPEKVRWFANQLQKKKSVMDITKMMYDLLLA | -0.423 |
| HMNDNTAINEFKKMVFTRMVHLQIDNAELSKLSGVTNSKILALKYGNSNTLKLGDIVKVAKTLNINLNDL | -2.86 |
| HMNDPFVILGVSKDASQSEILEAYKQKRAYYQERVFDEGDEGAQAARMLTQLDDAYQQAMELSHES | 0.183 |
| HMNDPIESLTPREREVLTLMAEGRTNAAIAAQLVVTEGAVEKHTQHIFAKLGLLPDSAVHRRVKAVLALLS | -2.35 |
| HMNDPNAPITENQLKAIHVLLDKLKVDDNLKHAYIADVLQLDNEPETLKTLTKAQGSMAIERMQLLKDN | 0.736 |
| HMNDQLIYSDFIRQVQDGQITEVTISGLNIAGTRSDGSVFNTLRPYIEDPKLIDDLLSHNVRIQGAE | 0.168 |
| HMNDRERIGKRIAQLRMEAGISQYKLAELTGLAPGNIARIETGKYSTGIDILSKIGDALGYQLDFI | -2.14 |
| HMNDRLAGMEGQRGEAATNFDQGEGKVKVGDTVWLAKQSDSTVIVEGDQIVVTGSENGLLKVRL | -0.25 |
| HMNDTLGVNIKRLRKEKGMTQDEVAKAVYTTRYNILRYESGKMTPSSEVIERLEKALGVPTGSLAQ | -0.348 |
| HMNDTSLIIDNLMLKLGNNIKNFSEIYSLLRKNLAEYGEEFIKSKVDYVLKNFNDNIEENLKKLLTE | -0.394 |
| HMNDVGKVLNQLGERDRMILLLTYWDELPLKEAARILEVSENNAKIILFRARSRFASLWSAGS | -3.14 |
| HMNEAVVVPDVKGLTLDEADEFFKNSKLRYNVVDSVFSKDVAPGAIVELVPVAGSKVKENRIVFVTINAQ | -0.361 |
| HMNEDTEDIKNINSLVNKLTENNFDIIRDSIVKLINKEHLIPYIIETIIEKSILHHRYVHLYVSILKE | 0.219 |
| HMNEDYSSMVGKTGFALTILRPAGKIMIEEEVFDAVAINGYISKGQEVEVVRYENAQLYVKVK | -1.04 |
| HMNEFGIPDKKLQDIETRVNSMSLEQLNAARSMLIDEQEALNSSTGSASSGRLKEIAAELSTIQKALIAIA | -0.00417 |
| HMNEFNEVVPDSLEGERLDRLLAFIGNISRSEASNIIKGGEVLINGKVVTRPSFKVTLGNRVEFSIRD | -0.531 |
| HMNEGETLYRLRAGDGRARLDKFLAAALPDISRTRFKGLIESGHVRVGGETITEPAYRVKSEAEVELTVPE | 0.0126 |
| HMNEIALETAIEDVESFIQMQNRNLAFSIDEDTDRAVVTVRDSDSGDVIRQIPSEEVLALAERIQDLQQD | 0.0361 |
| HMNEIDDYDIQLLEYLSKGVSQEAMESVFKQAGITPNSKSTIEKRISKLKIYFKALNTTHLVSITKDLGL | -0.647 |

| Sequence | soluble fraction (log2) |
| --- | --- |
| HMNEKEAEEAAEAQTEVPDVTGMAPAQAKNMLYQAGLSSEYRGEGETVSRQLPPAGETVNRGTKAVLYL | 0.0203 |
| HMNEKGTNSTINEITRISKPGRRVYVGSAEIPKVKSGRGLVLISTSKGVMTGAEAAKAKLGGELLLKV | -0.000493 |
| HMNEKMKEIGLRIKELRELSDISAQGMADHLKIPLETYQEYEDGKKDIPASILFEISQKMEVDMGLLLTGE | -0.476 |
| HMNELTDKQILLFSNKLAHNIPFSSKYSKPGESYEEFAERLANELIDPQKVKLYKPYLEEVGFK | 0.788 |
| HMNEMIFNQKKIGQFFMNPETNSPMIYPLELGHKMKIIELKNGWYNVTDEKTGLNGWVKEEDFGVTKPLDS | -0.346 |
| HMNENDENLRQQAIDASKEVRRWGEPVTLPPMNAHDRRIIHITLEGESDLQTESTGEGNFKSVVISLK | -0.171 |
| HMNEPSSYGYAISVALDRNGLGTVKGGTLYPLLARLEQAAHVETRWEAGDGGPGRKYYTITDSGRS | -0.214 |
| HMNERLKQLRLSLNLNQEEFGKWLGISKSGVSDIESGRRKVTEQHIIMLSNHNISEKWLRTGEGEMFV | -1.21 |
| HMNETNKMPNLVNQTDSSAIAQLNAMELGLKITTKEESSETVLAGYVIRTEPAADTELTKNQAVTVYVS | -0.00951 |
| HMNETTVPDVINQNISTGKIIIEDADLEYRIQYIPSEKSSSIGTIINSIPIYGKRVKSGTIVDLKVLG | -0.248 |
| HMNETVTNQTVLDLLKEGFTSEEIIGAIENSSTRTITYDINFMRQLKAAGADVTLTTYLQKIAKKDM | -0.136 |
| HMNEWSIDINLADEKQWTAKTKLSPAIIQNIIRYKNYLGGFTNLNQIKKVYGFTEANYYLLKPHLQLGK | -0.837 |
| HMNFDLDSFKQRMTLDGLYFGNEKQDVIALNNLSERYQLTWFDVYQLAKETSSNHKILPKRILVKLQQ | -2.09 |
| HMNFEIEVTENGKRIDSYLAEELDLSRSKVQKLIKQELVTVNGKVVSNNYNVKLGDTILVNDD | 0.113 |
| HMNFFQEIGNSILIELNKKNWTQSMFAHKIGVSDEVFKQIVQGKKALNAVEIAKIANTLDVDPEKLLRK | -1.08 |
| HMNFTEAEQRFHFLEDQRQRGVLSLEQYRAELAQLRVTDAWGRLWMLQEQTGQWFVFHEGQWRPSQ | -0.408 |
| HMNGEDVTDAIRLPQISQYASVVSAYPGVRAFLLEMQRDFARKGSVIMDGRDIGTVVLPEAEVKIFLT | -0.367 |
| HMNGGPHYLRDVRTSLGLSQADLAKAVGTSANMIHYLESGERALTLKWIRRISEALNVSPMRLIN | -2.06 |
| HMNGLPDLSRYTGVSIVDGLASVGSDSSFAYRAKIAETLGISDYKGSAGQNLEMIRKLGGKV | -0.517 |
| HMNGTGSVYKLSGKRRNPWRAVVTNGWAYNEEKGKLVQNRVTIGYYHTRDEAIQAIANYNSSP | -1.53 |
| HMNGVFIMHTPDGKVLRTEEGEEAVITLFNWSGQLLWSKTSLGQLPLPEGTQGVLQVQYKSGDQHTIKT | -1.28 |
| HMNHAPSLMRKIRRGLKEGRNPDDLLVNAKSISDYYYRSLSFYLLAPHFSSKSKQYKQVISLANS | -0.064 |
| HMNHHTEQQLKALSNKVKDHRMRMRLLAVAHFKAGKNKADVARTLNVSRRMVNEWVANYFKGGVSALES | -3.43 |
| HMNHLLYPNPANNFIWIKNSTSNTAVIYNLQGVMSKVEVSEEGKIDISRFSPGLYMIKQGERIYKFTIA | -1.75 |
